# Measurements published in patent US10364296B2, “Antibodies specific for MMP9” (CALYPSO BIOTECH SA, priority 2014, dated 2019).
# How the values were obtained:
# MMP3-activated MMP9 [1] = target: T1, MMP3-activated MMP9 (Homo sapiens, UniProt P14780); test: Direct binding ELISA; details: biotinylated antibody, antigen coated at 2.5 μg/ml
# Protocol: (§1) MMP9 antigens were coated at 2.5 μg/ml. Controls were streptavidin-HRP alone (closed triangles), or human IgG4 isotype control plus biotinylated anti-human-IgG second step Fab antibody (closed squares).
# (§2) Direct binding capacities of anti-MMP9 antibodies towards human pro-MMP9 and MMP3-activated human MMP9, respectively, were assessed using a standard ELISA protocol. Briefly, 96-well plates were coated with (2.5 μg/ml) of either form of MMP9 for 16 h at room temperature.
# human pro-MMP9 [2] = target: T2, human pro-MMP9 (Homo sapiens, UniProt P14780); test: Direct binding ELISA; details: biotinylated antibody, antigen coated at 2.5 μg/ml
# T2 sequence (P14780 20-707): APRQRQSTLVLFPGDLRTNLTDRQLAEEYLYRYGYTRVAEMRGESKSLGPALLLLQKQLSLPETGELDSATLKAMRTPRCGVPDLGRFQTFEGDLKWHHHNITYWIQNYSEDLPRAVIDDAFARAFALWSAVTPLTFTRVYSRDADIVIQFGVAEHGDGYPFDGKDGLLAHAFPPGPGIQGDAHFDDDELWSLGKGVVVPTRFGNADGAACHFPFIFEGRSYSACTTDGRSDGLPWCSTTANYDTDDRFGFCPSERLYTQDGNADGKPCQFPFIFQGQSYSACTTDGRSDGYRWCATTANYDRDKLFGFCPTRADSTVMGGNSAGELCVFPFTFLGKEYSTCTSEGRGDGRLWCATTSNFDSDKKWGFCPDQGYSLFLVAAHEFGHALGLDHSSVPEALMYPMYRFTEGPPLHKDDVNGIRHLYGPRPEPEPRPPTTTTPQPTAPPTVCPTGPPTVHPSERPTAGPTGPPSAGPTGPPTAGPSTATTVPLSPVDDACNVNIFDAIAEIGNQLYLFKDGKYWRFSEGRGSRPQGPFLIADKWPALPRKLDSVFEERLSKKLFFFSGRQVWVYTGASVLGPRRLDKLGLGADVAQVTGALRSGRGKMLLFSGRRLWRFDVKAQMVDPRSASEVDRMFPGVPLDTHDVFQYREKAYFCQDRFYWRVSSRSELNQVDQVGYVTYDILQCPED
# Protocol: as §1, §2
# MMP3-activated MMP9 [3] = target: T1, MMP3-activated MMP9; test: Surface Plasmon Resonance (BIAcore) binding; details: for SPR binding to MMP3-activated MMP9 (in words): sensograms, 4.7 to 150 nM
# Protocol: (§3) Sensorgrams of kinetics of binding are reported. Resonance unit (RU). All y axis-response (RU); all x axis-time (s).
# (§4) Binding of anti-MMP9 antibodies towards recombinant human MMP9 antigen was characterized using standard Surface Plasmon Resonance (SPR) assay. In a first step, anti-MMP9 antibodies were captured by anti-human Fc antibody immobilized onto a BIAcore sensor chip. In a second step, pro-MMP9 or MMP3-activated MMP9 were titrated from 4.7 to 150 nM in 2-fold dilutions.
# human pro-MMP9 [4] = target: T2, human pro-MMP9; test: Surface Plasmon Resonance (BIAcore) binding; details: for SPR binding to pro-MMP9 (in words): sensograms, 4.7 to 150 nM
# Protocol: as §3, §4
# [5] = target: Human MMP9 (i.e. activated MMP9) (Homo sapiens, UniProt P14780); test: MMP9 assay: DQ-gelatin digestion by pre-activated (caspase-cleaved) MMP9; assay type: biochemical; details: MMP9 assay with highly purified activated MMP9
# Sequence of Human MMP9 (i.e. activated MMP9) (P14780 107-707 limits assumed): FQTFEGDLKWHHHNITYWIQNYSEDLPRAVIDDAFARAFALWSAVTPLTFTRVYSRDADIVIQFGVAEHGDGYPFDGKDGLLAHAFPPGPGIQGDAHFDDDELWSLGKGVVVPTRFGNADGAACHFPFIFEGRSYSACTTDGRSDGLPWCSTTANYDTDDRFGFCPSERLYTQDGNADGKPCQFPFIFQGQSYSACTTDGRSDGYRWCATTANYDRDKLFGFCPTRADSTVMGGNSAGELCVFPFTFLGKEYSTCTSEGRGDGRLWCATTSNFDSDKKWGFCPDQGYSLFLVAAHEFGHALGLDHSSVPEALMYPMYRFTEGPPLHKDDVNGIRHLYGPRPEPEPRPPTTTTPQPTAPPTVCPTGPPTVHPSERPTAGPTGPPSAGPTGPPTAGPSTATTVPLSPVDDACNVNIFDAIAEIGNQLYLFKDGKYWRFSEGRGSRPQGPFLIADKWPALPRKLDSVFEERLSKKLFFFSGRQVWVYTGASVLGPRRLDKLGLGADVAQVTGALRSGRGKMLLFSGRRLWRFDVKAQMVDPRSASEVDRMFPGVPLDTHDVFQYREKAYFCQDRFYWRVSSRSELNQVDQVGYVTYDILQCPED
# Protocol: The functional neutralization of MMP9 catalytic activity towards the fluorogenic polymer substrate DQ-gelatin by some antibodies according to the invention was evaluated. The signature activity of MMP9 (and MMP2) is gelatin degradation. Gelatin is essentially an irreversibly denatured form derived from various collagens, several of which are considered key physiological substrates for MMP9. Unlike small peptidic substrates, the binding and recognition of gelatin (similar to that of collagen) by MMP9 is complex and known to be mediated via regions of the molecule other than the active site, including the fibronectin and PEX domains. In order to retain these physiologically relevant ‘exosite’ interactions and to facilitate the isolation of potential ‘non-classical’ allosteric neutralizer classes, a fluorogenically quenched soluble gelatin polymer (DQ-gelatin) was chosen as the key substrate for plate-based screening and ranking purposes. Substrate hydrolysis was mediated by truncated fragment of MMP9 (ie. pro-domain removed). The assay was performed in two modes. The first mode, named “MMP9 assay”, utilized pre-activated MMP9 (from engineered MMP9 containing a LETD caspase 8 recognition motif at the native cleavage junction) in which the pro-domain was first removed via directed caspase 8 cleavage. […]
# [6] = system: MGC803 human gastric cancer cells; test: Cancer cell invasion through Matrigel-coated transwell; assay type: cell-based; details: 10 μg/ml antibody, PMA 100 ng/ml, 16 h
# Protocol: MGC803 human gastric cancer cells were incubated with Phorbol 12-Myristate 13-Acetate (PMA) and with a broad chemical inhibitor of MMPs (GM-6001), anti-MMP9 antibody (F20-VH/B08-VLc), isotype control or medium alone. Invading cells were quantified after 16 hours using Calcein-AM. Each condition was performed in duplicates and means and SD of fluorescence units are reported.
# Cancer cell line invasion was assessed using Matrigel-coated transwells. Insert membranes of transwells (provided in kit from Cultrex—3455-024) were coated with basement membrane extract (BME ×0.5; provided in Cultrex's kit) and incubated for 24 h at 37° C. Meanwhile, MGC803 (human gastric cancer cell line—Easy-Bio, China) were starved in RPMI culture medium (Gibco—52400025) deprived of serum (starving medium). […] One hundred μl of treated cells were seeded into Matrigel-coated transwells and 500 μl of RPMI medium containing 10% FCS were added in the lower side of the transwell. Plates were incubated for 16 h at 37° C. Invading cells were quantified by incubation of the bottom side of transwell membrane with Calcein-AM, whose cleavage into fluorescent Calcein is proportional to cell counts. Emitted fluorescent signal (Excitation at 485 nm, emission at 520 nm) reflects efficiency of cell invasion through Matrigel.
# [7] = system: heterotopic intestinal grafts in C57BL/6 mice; test: Heterotopic transplant mouse model of intestinal fibrosis; assay type: in vivo
# Protocol: Donor (green fluorescent protein-marked C57BL/6-Tg UBC-GFP mice) small bowel resections were transplanted subcutaneously into the neck of recipient C57BL/6 mice. Mice were injected intraperitoneally at day 5, 8 and 10 with 30 mg/kg of an anti-MMP9 antibody of the invention (F20-VH/B08-VLc, variant F20-VH-GL1-V4-V9/B08-VL-GL6c), or isotype control antibody (IgG4), 5 mice per group. Small bowel grafts were explanted 14 days after transplantation. After explant, each graft was divided into three equal segments. The central segment was fixed in 4% formalin, and prepared for histopathological assessment. The two outer segments were snap frozen in liquid nitrogen and stored at −70° C. until RNA or protein extraction.
# Histologic cross sections were stained with Sirius red to highlight collagen (red stain). Collagen layer thickness was determined by an independent investigator blinded to the type of experiment. Microscopic assessment was done using an AxioCam MRc5 on a Zeiss Axiophot microscope. The thickness of the collagen layer was measured with the AxioVision Release 4.7.2 software (Zeiss). Thickness was calculated from eight places in representative areas (in eight samples investigated for each time point) at 100-fold magnification. Statistical analyses were performed using PRISM 6 software. Unpaired t test was used for comparison among groups.
# MMP3-activated MMP9 [8] = target: T1, MMP3-activated MMP9; test: Competitive binding ELISA; details: pre-incubation with 50 μg/mL purified antibody
# Text: For panels A, B, C, results are expressed as mean±SD of corrected absorbance (A450-A620) for each condition performed in duplicate.
# [9] = system: DSS-induced colitis in BALB/c mice; test: DSS-induced colitis mouse model; assay type: in vivo; details: Day 14, vs isotype control
# Protocol: The therapeutic efficacy of an anti-MMP9 antibody according to the invention was assessed in a DSS-induced colitis model in BALB/c mice. Colitis was induced with 4% (w/v) DSS in drinking water for 5 days. Doses of 30 mg/kg F20-VH/B08-VLc (variant F20-VH-GL1-V4-V9/B08-VL-GL6c) or isotype control (IgG4) antibodies were intraperitoneally injected to groups of 10 mice at day 6, 9 and 12, and animals were sacrificed at day 14.
# The course of the disease was evaluated in blind fashion by video endoscopy of the lower colon at days 6, 10 and 14. Colitis was scored visually on a scale of 0-14 based on the degree of ulceration, vascularisation, and granularity present in tissue and colon length involved as follows: ulceration (0, 1, 2 or 3), masking of vascularisation (0, 1, 2 or 3), granularity (0, 1, 2 or 3), erythema (0, 1, 2 or 3), length involved (0, 1: localized, 2: diffuse). Each mouse was assigned a single endoscopy score corresponding to the damage observed throughout the entire length of the colon examined.
# At study termination (Day 14), distal colon was excised from each mouse, formalin-fixed and embedded in paraffin and sectioned for histology. All sections were stained with haematoxylin and eosin and examined in a fashion blind as to treatment groups. Tissues were scored for epithelium damage and infiltration of inflammatory cells according to the scoring scale of […] for each parameter. The histology score represents the sum of the epithelium damage and infiltration of inflammatory cell scores, and thus ranges from 0 to 8.
# T1 sequence (P14780 107-707): as the sequence (P14780 107-707 limits assumed) above
ELISA direct binding to MMP3-activated MMP9 (in words) (MMP3-activated MMP9 [1]),SPR binding to MMP3-activated MMP9 (in words) (MMP3-activated MMP9 [3]),SPR binding to pro-MMP9 (in words) (human pro-MMP9 [4]),decrease of DQ-gelatin digestion (in words) [5],"binding observed to pro-MMP9 (human pro-MMP9 [4]; SPR, at a 150 nM antibody concentration) [%]","Kd (MMP3-activated MMP9 [3]; SPR, MMP3-activated MMP9, calculated from the curves, read-out: KD (nM), antigen MMP9) [nM]","Kd (human pro-MMP9 [4]; SPR, antibody captured by anti-human Fc, calculated from the curves, read-out: KD (nM), antigen Pro-MMP9) [nM]",Molecule,ELISA direct binding to pro-MMP9 (in words) (human pro-MMP9 [2]),inhibition of migration of MGC803 cancer cells through Matrigel [6],occlusion of the intestinal lumen of the graft ([7]; 14 days after transplantation),competition with biotinylated comparative antibody 1 for binding to MMP9 (in words) (MMP3-activated MMP9 [8]),"loss of epithelial structure in heterotopic intestinal grafts ([7]; 30 mg/kg i.p. day 5, 8, 10, day 14, vs isotype control)","collagen layer thickness in heterotopic intestinal grafts ([7]; 30 mg/kg i.p. day 5, 8, 10, day 14, vs isotype control, p<0.0001)","mean endoscopy score ([9]; 30 mg/kg i.p. day 6, 9, 12, p=0.005)",mean colitis severity score (histology) ([9]; 30 mg/kg i.p.),mean score for epithelial damage ([9]; 30 mg/kg i.p.),mean score for infiltration of inflammatory cells ([9]; 30 mg/kg i.p.)
strongly bind,bind well,binds well,inactive,–,–,–,"comparative antibody 1: antibody known as AB0041, heavy chain SEQ ID NO: 44, light chain SEQ ID NO: 45; mouse monoclonal, WO 2013/130078 [reference compound]",binds well,–,–,–,–,–,–,–,–,–
strongly bind,bind well,minimal signal,–,< 1,–,–,"F20-VH-GL1-V4-V9/B08-VL-GL6c: VH SEQ ID NO: 19; VL SEQ ID NO: 70; reformatted as human IgG4; the F20-VH/B08-VLc variant of Examples 5-12 (antibody, V domains shown, human IgG4 format; heavy chain F20-VH-GL1-V4-V9; light chain B08-VL-GL6c) VH: EVQLVESGGGLVQPGRSLRLSCAASGFTFNDYPMHWVRQAPGKGLEWVSGISSRSGSVGYAESVKGRFTISRDNAKNSLYLQMNSLRAEDTALYYCARDKIYYGSGSYDFYYYYGMDVWGQGTTVTVSS VL: QSALTQPASVSGSPGQSITISCTGTSNDVGAYNRVSWYQQHPGKAPKLMIYGVSNRPSGVSNRFSGSKSGNTASLTISGLQAEDEADFYCTSYSSSTTSYVVFGGGTKVTVL",only shows significant binding to pro-MMP9 at the highest concentration tested,efficiently inhibits migration,partial occlusion of the intestinal lumen,does not prevent binding of comparative antibody 1,–,–,–,–,–,–
–,–,–,–,–,11.7,> 15000,"F20-VH/B08-VLc: VH SEQ ID NO: 11; VL SEQ ID NO: 69; HO candidate selected for lead optimization; name also used loosely for its tested variant (antibody, V domains shown, heavy chain F20-VH; light chain B08-VLc) VH: EVQLVESGGGLVQPGRSLRLSCAASGFTFNDYPMHWVRQAPGKGLEWVSGISSNSGSVGYADSVKGRFTISRDNAKNSLYLQMNSLRDEDTAVYYCARDKIYYGSGSYDFYYYYGMDVWGQGTTVTVSS VL: QSALTQPRSVSGSPGQSVTISCTGTSNDVGAYNRVSWYQQHPGKAPKLLIYGVSNRPSGVSTRFSGSKSGNTASLTISGLLAADEADFYCTSYSSSTTSYVVFGGGTKVTVL",–,–,–,–,significantly protects against loss of epithelial structure,reduces collagen layer thickness,significant improvement,decrease,decreased,decreased
